Data published in a protein production outcome set (Wang et al. 2014).

Experiment: label from the status in PepcDB records

Sequence	protein production
MDWLLTPGPVRLHPKALEALARPQLHHRTEAAREVFLKARGLLREAFRTEGEVLILTGSGTLAMEALVKNLFAPGERVLVPVYGKFSERFYEIALEAGLVVERLDYPYGDTPRPEDVAKEGYAGLLLVHSETSTGALADLPALARAFKEKNPEGLVGADMVTSLLVGEVALEAMGVDAAASGSQKGLMCPPGLGFVALSPRALERLKPRGYYLDLARELKAQKEGESAWTPAINLVLAVAAVLEEVLPRLEEHLALKAWQNALLYGVGEEGGLRPVPKRFSPAVAAFYLPEGVPYARVKEAFAQRGAVIAGGQGPLKGKVFRLSLMGAYDRYEALGVAGMFREVLEEILPAS	not failed
MLFIPPPLLCLFIAIAMYFLPKIASYSVHFSVIVFVISLSFLIALSSVMQSLYVKPPLILVTLKAQQN	failed
MYIVNSNKSRGSSVERYIVSRLRDKGFAVIRAPASGSKRKDHVPDIIALKSGVIILIEVKSRKNGQKIYIEKEQAEGIREFAKRSGGELFLGVKLPKMLRFIKFDMLRQTEGGNYAIDLETVEKGMELEDLVRYVESKISRTLDSFL	not failed
MHQQTLWLFSGIALVLIIATLISETLRWRARERPSAVLDNLVARIRAWWVMAAVVGLAFVFGRAGVIGLFALVSLFALREFITLTPTRRGDYYALLAAFYVVLPWQYGLVWTGWYGLYTLLIPVYAFLVLPILATIGGDTTRYLERTAKVQWGLMICVFCISHVPALLNLDIPGYAGRNLLLIAFLVIVVQSSDVLQYVWGKLAGRHLIAPKLSPSKTVEGFIGGVVSASLLGMALWWITPFAPWHAFGLALVANLMGFFGGLVMSAIKRDRGIKDWGHMIEGHGGVLDRLDSVCFAAPVFFHLIRYGWA	failed
MMDFDFLEGKRLTEDVALDETMVWNEDIEMLDLHLVATSALIGVVHRVSYELLSRYLPNDYTAVVVETLARHVKAVPTGTRVAVGVRVVGVVGNRVKFRGIVMSGDEKILEAEFVRAIVPREKLRRLALEKAEKTSRLFGI	not failed
MKKASEYYYYLGDICWRKEKTDSAKYYFMEGIKTDETYAMNYVGIGIITMKSNATEGQRSFDKALQMTSQKNSQVLNAIGEYYILEADKAELPKGIALLKKSTEIDAKNAMSWILLGDAYGKQAEGSKQAESYGKAANLFHSVPLLKMKYGKMYAAARNKDLSIKYYNEGLAADPTYGPIYRELGDLYNRFRQYDLAIQNYKKYLTYIDSNDDVEFRYADFLFKNNNYAEAIEVFNKLEAKKYNSPYIYNRRAVCYYELEHHHHHH	failed
MAVRIVDDLQQLSLLLMFLSTFIFYRYLKKVKRERKLTGFEWTMYFVTQFATLIWAITYFIKHLAES	failed
MANDGATVFWLSFLAIILGFLSWKFKKIGGISLIAISIYGLFVNGLFFIFAFVFLMIAGILSFKIKPTSPKDVKIAN	failed
MQRYDAVISGAGPAGCSAALSLAQKGRRVLLIDKARFPREKICGDGVTAASTELLEEMGVLELLRQRPGSLTEFRGATFVSPGGTVVQGRILRNGHLSGSSYVIPRMVLDDSLVSRVKEHSSITFLDKTTVTGLVMDGDRARGVATSAGEFCGRIIIAADGAYSPIAKQLDLWNRDKRQQGFAMRAWFSGVEGLGDSIELCYDKAMLPGYGWIFPAGEQRANVGVFLLPRFADQRSTKRLFKSFVKENAFAAARLKNAVMEPGSLKSWPLPFGSFAGRRGRGNVLLAGDAGSFIDPLTGEGIYYALKTGRYAAEAVANALERNDESAALTRYEQLWRGEFSGRVYFPGYAFQHFMNNSWFVDTFMRYTAKKQHRADLLADVVAHNRKRRELFKLLNPFYLEHHHHHH	failed
MPVGGLLPLFSSPGGGGLGSGLGGGLGGGRKGSGPAAFRLTEKFVLLLVFSAFITLCFGAIFFLPDSSKLLSGVLFHSNPALQPPAEHKPGLGARAEDAAEGRVRHREEGAPGDPGAGLEDNLARIRENHERALREAKETLQKLPEEIQRDILLEKEKVAQDQLRDKDLFRGLPKVDFLPPVGVENREPADATIREKRAKIKEMMTHAWNNYKRYAWGLNELKPISKEGHSSSLFGNIKGATIVDALDTLFIMGMKTEFQEAKSWIKKYLDFNVNAEVSVFEVNIRFVGGLLSAYYLSGEEIFRKKAVELGVKLLPAFHTPSGIPWALLNMKSGIGRNWPWASGGSSILAEFGTLHLEFMHLSHLSGDPVFAEKVMKIRTVLNKLDKPEGLYPNYLNPSSGQWGQHHVSVGGLGDSFYEYLLKAWLMSDKTDLEAKKMYFDAVQAIETHLIRKSSGGLTYIAEWKGGLLEHKMGHLTCFAGGMFALGADGAPEARAQHYLELGAEIARTCHESYNRTYVKLGPEAFRFDGGVEAIATRQNEKYYILRPEVIETYMYMWRLTHDPKYRTWAWEAVEALESHCRVNGGYSGLRDVYIARESYDDVQQSFFLAETLKYLYLIFSDDDLLPLEHWIFNTEAHPFPILREQKKEIDGKEK	not failed
MKNLKKKLLKLVKIFVIIFVCLAAFFVYIFIEPYWINEKTTTISDSDVPQNFEGKKIVFISDIHHGPYFERERVADLVRKVNELEPDIIILGGDYVSGDVGYIGACFEELSRLKADMGIFGVTGNHDEWTDYNLTVKCMENAGITVLSNRAEWLEIGDDKIKIAGVDWSTDWYFNSEPYVDPLIKDAEENDFVILVSHTPDLAEELTTDKVDLVLSGHTHGGQITFFGLWAPYVPSFYGQKYRTGIVKTDKTMALVSNGVGNTFLPIRFFARPQINIIILDHP	failed
QNNYLQSLEVQVMLDTLRVIHNPLQDYALVALMKSPMFGFDEDELARLSLQKAEDKVHENLYEKLVNAQKMASSQKGLIHTALAEKLKQFMDILASWRLYAKTHSLYDLIWKIYNDRFYYDYVGALPNGPARQANLYALALRADQFEKSNFKGLSRFIRMIDQVLEAQ	failed
MPFSWLKPIDYARIFVGWASIFIIPLITLPSIIELALIVAVILFCAFGVVKMAERLAHILGDPFGSLILTLSIVIIEVILICAVMLGPADSTTAGRDSVMAVSMIIMGLVVGLCLLIGGLRHGSMPHNGVGTPTYLVLIATFSVIAFAVPAFRGEYSTGQALVISTLTAVVYGFFLFRQMGAQAGEFQEVEVAEKADDAAKWEVPFRGLILIITVLPIVLLSHDMATVMDEVLASLGAPVAMAGLIIATIVFLPETITSLKAAWTGEIQRVSNLAHGAQVSTVGLTIPAVLVIGVITGQDVVLGETPINLLLLGTTIAVTAIAFSSKKVSAVHGSVLLMLFGVYMMSMFA	failed
MSFYIQLASLSIIILYVLLLFRNVDPLVATAVCVGLGFLWNISTPIDIGNAMADALGSFMALVGFIIMLGRGLGEVLTHTQVSHTLVHQIVYGVGVNTQRRAKIGIVLSSFIIVGLLGTLAGGLAILAPSLRPIAGSVGLSRPSLAVLMQASAEEALILGPFAPPVVTLLGVTGLSYGTVFLYASLPIAVVTLITTWFMASRLQKLYINEPCEDENSTEPFTPNRQQKRVTLIFLISFLFCVVYGLFTQAKTSYVIFVMLFLALITGLSCRLGLKQIFNLLFEGMQKSLHLFFLFILFDPFMALIHQAGGFNALTELLTPLINLGGKPVLSILIGFTGAFGMPGAAEATIKMLHQLFSPSVLQMQLPLITFALCMLFATRVTNYAYPGANMFAAMGFAGSENVKAMIQNGLVVTGVQVAFLIVYSLFIP	failed
MDHHHHHHHHMPRTTGMNVAVVGGGISGLAVAHHLRSRGTDAVLLESSARLGGAVGTHALAGYLVEQGPNSFLDREPATRALAAALNLEGRIRAADPAAKRRYVYTRGRLRSVPASPPAFLASDILPLGARLRVAGELFSRRAPEGVDESLAAFGRRHLGHRATQVLLDAVQTGIYAGDVEQLSVAATFPMLVKMEREHRSLILGAIRAQKAQRQAALPAGTAPKLSGALSTFDGGLQVLIDALAASLGDAAHVGARVEGLAREDGGWRLIIEEHGRRAELSVAQVVLAAPAHATAKLLRPLDDALAALVAGIAYAPIAVVHLGFDAGTLPAPDGFGFLVPAEEQRRMLGAIHASTTFPFRAEGGRVLYSCMVGGARQPGLVEQDEDALAALAREELKALAGVTARPSFTRVFRWPLGIPQYNLGHLERVAAIDAALQRLPGLHLIGNAYKGVGLNDCIRNAAQLADALVAGNTSHAP	not failed
KREHFRDDYLYRFYQYGDTHSKIPSNLYKVLARKLDMISASENINDLRSPPANHLELLEPKENKIYSIRVNKQYCLIFKYENNEVNNLYLDPH	failed
MSDHHHHDHHLGCACCALPLLELLDQPQLSQDEWQRELETLAPELGKRFPRPGQQESAIFHGGSIRPLAAAGPSRVAALGMSGGRIVAMGDLDDVRAAMASHRPFREIDLDGRALLPGLVDPHMHIMPSALFKSWISLSAFGVTRNSQDGEDAQVLNPDYSYQQIKDKLLPAIAQAKQPGAASNWVLGFGVDPSLMREWVDIKASSLDELAPPDDNIAVFLLNASGHIGYANTAAMKEAGLTPEQIKKCEGVLTEANIIQIMGKIPKRILAKDLLRNLLMVLHDAASRGNTMLFDAGLGSSLKEAEVRLLQLIAKLGLSPVRIAGALYSNELTQMRQWMKLYQPDLNSQDDSHFSIKALKLVADGSNQGLTGFQFSPYKNVAQHPVPDVPPIGLFNFKIPDAPSSENENRLPDSLASYLHLALGSGWPVLVHSNGEQAMELVLDSYQEAISATRADARHLRLRVEHASLLTDATLSRMASMGLSPSFLIGHVGYWGYALQNDILGEARTELLDRCKSARDAGIRISLHSDHFVSPLGSLRMAEQAIYRKMEGAPQEEKPVLNKEECLSHEQALAAVTLDAAWQCHMDHLVGSLEPGKLADMVILGQDPLDDGVTDLRHINVHETWRGGARVYANPNTH	failed
MAFAPRYSSLIPCALALAASLAGTPDGARAQAPDGPKHPLEKPLAHPPAPPEKLPRVPTDRTKGLDFLFGALKAAPDETSAKHVEGRIWALWSQTTSDTTALLMARSKVAMDAKQFDVALKLLDAVVKLKPDYVEGWNRRATIYYLQNDYMHSLEDIEQVLAREPRHFGALAGLGMIMQELGDDKRALDAFRRALALNPHLDKVPDLVKTLSEKVEGRDI	failed
MIETLITFIIIFGIIVAIHEYGHLWWAKRSGILVREYAVGMGPKIFAHQAKDGTLYTIRILPLGGYVRLAGWGDDKTEIKKGQAASLVVSKSEVVNPEAENSVSNIVRRINLSEHVELEEAIPMLITEYDFEKELFIEGEVFGEIKRYSVDHDATIIEEDGTEVRIAPLDVQYQSAGVFHKMLTNFGGPLNNFILGIIAFIVLTFVQGGVPSTTNAIGQVEKGTPAYNAGLKAGDKIEAVNGTKTADWNNVVTEISGSKGKELKLEVSRSGKSETLSVTPKKMDGSYRVGIMQSMKTGFFDKITGGFVQAGQSATAIFKALGSLIARPSLDKLGGPVAIYQLSGQAARAGFPAIVYLLAMLSINLGIVNLFPIPVLDGGKIVLNIIEAIRGKALSQEKESIITMVGVVFMLVLFVAVTWNDILRAFVN	failed
MADVENQQDSSFPVKRKSDLFCQDQDNVTNKAQKLNPSLNSADSESKDGETNGSGQIENLNSSTEETIGAESSVLSEKAAEEVESGVIGDVGAEEEQEDEEDEEEDDEEEEEEEEVVDRKGKGISREDKGKGKMIEVEESDDEDDSDDDEDDEGFDEDDESDFSDDPLAEVDLDNILPSRTRRRSSQPGVFIPNEFSNRHVNDEDDESSDSDA	failed
ESPLYCVMAKADGPVQGLADLKGRKVGFSVAGIEEALLHTMLRTNGVEPAEVEFVNVNFALTPALASGQADAVAGAFRNFELHQIAAAGSEGRCFLPEENGVPSYEELIYVANPDRMDREKVVAFLKVTERAAGFIADHPEEAWEIFRG	failed
MIDWPLAELLPHAGDMILIDQVLAFDEEQIRTRLEVRPGGLFNRPDGSLPAWVGVELMAQSVAAYAGCRARQQGLPVELGFLLGTRKFECNVEHFPLGSTLEIHALRSLEDDNGMGVFECHLSGPGITASARLNVFRPPQAADYLHETPASSTGTPS	failed
MGVLAEVYEMLNTCNRCGFCHTACKTYKVDGAETMVSRGRVQLIKAVADGVIEADADYEDSINSCLLCGECAVACPSGVSAKELVMAARRDLKLRHGLEHHHHHH	not failed
